Measured values published in US20240036027A1 (UNIVERSITY OF MASSACHUSETTS, published 2024).

Columns and labels:
[1] = molecular target: T1, Streptavidin (unconjugated, EMD Millipore) (UniProt P22629 37-163); assay: single-channel current recording, kOn=1/(C*tauOn)
[2] = molecular target: T1, Streptavidin (unconjugated, EMD …); assay: single-channel current recording, apparent Kd=kOff/kOn, N=3, n=903
[3] = molecular target: T1, Streptavidin (unconjugated, EMD …); assay: single-channel current recording, kOff=1/tauOff
[4] = molecular target: T1, Streptavidin (unconjugated, EMD …); assay: single-channel current recording
[5] = molecular target: T1, Streptavidin (unconjugated, EMD …); assay: single-channel current recording, discrete binding events
[6] = molecular target: T1, Streptavidin (unconjugated, EMD …); assay: single-channel current recording, KOff of the lower Ires state taking transient returns to basal conductance as dissociation
[7] = molecular target: T1, Streptavidin (unconjugated, EMD …); assay: single-channel current recording, streptavidin alone, N=12, n=2846
[8] = molecular target: T1, Streptavidin (unconjugated, EMD …); assay: single-channel current recording, streptavidin alone, concentration dependence
[9] = molecular target: T1, Streptavidin (unconjugated, EMD …); assay: single-channel current recording, calculated from kOff and kOn

T1 sequence (P22629 37-163 limits assumed): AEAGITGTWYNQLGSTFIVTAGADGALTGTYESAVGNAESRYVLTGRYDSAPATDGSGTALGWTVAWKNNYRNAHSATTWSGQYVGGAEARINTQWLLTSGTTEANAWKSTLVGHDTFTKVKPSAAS

B1: OmpG^L6-SA1.1 (designed binder)
chain: MEERNDWHFNIGAMYEIENVEGYGEDMDGLAEPSVYFNAANGPWRIALAYYQEGPVDYSAGKRGTWFDRPELEVHYQFLENDDFSFGLTGGFRNYGYHYVDEPGKDTANMQRWKIAPDWDVKLTDDLRFNGWLSMYKFANDLNTTGYADTRVETETGLQYTFNETVALRVNYYLERGFNMDDSRNNGEFSTQEIRAYLPLTLGNHSVTPYTRIGLDRWSNWDWQGLEICQNVCYYGDDIEREGHDFNRVGLFYGYDFQNGLSVSLEYAFEWQDHDEGDSDKFHYAGVGVNYSF
notes: also called Loop 6 SA1.1
Q: For B1, which kon [1] is on record?
A: 69100 M⁻¹ s⁻¹

Q: What about the Kd [2] of the same binder?
A: 8.83 µM

Q: What about the koff [3] of the same binder?
A: 0.783 s⁻¹

B2: OmpG^L3/L6-SA1.1 (designed binder)
chain: MEERNDWHFNIGAMYEIENVEGYGEDMDGLAEPSVYFNAANGPWRIALAYYQEGPVDYSAGKRGTWFDRPELEVHYQFLENDDFSFGLTGGFRNYGYHYVDEPGLEICQNVCYYGGKDTANMQRWKIAPDWDVKLTDDLRFNGWLSMYKFANDLNTTGYADTRVETETGLQYTFNETVALRVNYYLERGFNMDDSRNNGEFSTQEIRAYLPLTLGNHSVTPYTRIGLDRWSNWDWQGLEICQNVCYYGDDIEREGHDFNRVGLFYGYDFQNGLSVSLEYAFEWQDHDEGDSDKFHYAGVGVNYSF
notes: SA1.1 motif in both loops 3 and 6; also called avidity sensor; avidity nanopore sensor
Q: Which results are given for B2?
A: fold change of KOff against OmpG^L6-SA1.1 [4]: ~76 fold; fold change of KOn against OmpG^L6-SA1.1 [4]: ~4.7 fold; koff [5]: 0.0103 s⁻¹; kon [5]: 326000 M⁻¹ s⁻¹; koff [6]: 0.701 s⁻¹

B3: OmpG^L3-FLAG/L6-SA1.1 (designed binder)
chain: MEERNDWHFNIGAMYEIENVEGYGEDMDGLAEPSVYFNAANGPWRIALAYYQEGPVDYSAGKRGTWFDRPELEVHYQFLENDDFSFGLTGGFRNYGYHYVDEPGDYKDDDDKGGKDTANMQRWKIAPDWDVKLTDDLRFNGWLSMYKFANDLNTTGYADTRVETETGLQYTFNETVALRVNYYLERGFNMDDSRNNGEFSTQEIRAYLPLTLGNHSVTPYTRIGLDRWSNWDWQGLEICQNVCYYGDDIEREGHDFNRVGLFYGYDFQNGLSVSLEYAFEWQDHDEGDSDKFHYAGVGVNYSF
notes: Possible glycines beside SA1.1 (primers) not built in; also called multiplex sensor; SA1.1 multiplex sensor
Q: B3 was tested. Which koff [7] did it give?
A: 0.552 s⁻¹

Q: And the kon [8]?
A: 73200 M⁻¹ s⁻¹

Q: What about the Kd [9] of the same binder?
A: 7.54 µM
